Test results reported in IntAct's records for PubMed 9425168.

B1: Focal adhesion kinase 1 (Gallus gallus (Chicken)), Q00944 (parent)
chain: MAAAYLDPNLNHTPSSSAKTHLGTGMERSPGAMERVLKVFHYFENSSEPTTWASIIRHGDATDVRGIIQKIVDCHKVKNVACYGLRLSHLQSEEVHWLHLDMGVSNVREKFELAHPPEEWKYELRIRYLPKGFLNQFTEDKPTLNFFYQQVKNDYMLEIADQVDQEIALKLGCLEIRRSYGEMRGNALEKKSNYEVLEKDVGLRRFFPKSLLDSVKAKTLRKLIQQTFRQFANLNREESILKFFEILSPVYRFDKECFKCALGSSWIISVELAIGPEEGISYLTDKGANPTHLADFNQVQTIQYSNSEDKDRKGMLQLKIAGAPEPLTVTAPSLTIAENMADLIDGYCRLVNGATQSFIIRPQKEGERALPSIPKLANNEKQGVRSHTVSVSETDDYAEIIDEEDTYTMPSTRDYEIQRERIELGRCIGEGQFGDVHQGIYMSPENPAMAVAIKTCKNCTSDSVREKFLQEALTMRQFDHPHIVKLIGVITENPVWIIMELCTLGELRSFLQVRKFSLDLASLILYAYQLSTALAYLESKRFVHRDIAARNVLVSATDCVKLGDFGLSRYMEDSTYYKASKGKLPIKWMAPESINFRRFTSASDVWMFGVCMWEILMHGVKPFQGVKNNDVIGRIENGERLPMPPNCPPTLYSLMTKCWAYDPSRRPRFTELKAQLSTILEEEKLQQEERMRMESRRQVTVSWDSGGSDEAPPKPSRPGYPSPRSSEGFYPSPQHMVQPNHYQVSGYSGSHGIPAMAGSIYPGQASLLDQTDSWNHRPQEVSAWQPNMEDSGTLDVRGMGQVLPTHLMEERLIRQQQEMEEDQRWLEKEERFLVMKPDVRLSRGSIEREDGGLQGPAGNQHIYQPVGKPDHAAPPKKPPRPGAPHLGSLASLNSPVDSYNEGVKIKPQEISPPPTANLDRSNDKVYENVTGLVKAVIEMSSKIQPAPPEEYVPMVKEVGLALRTLLATVDESLPVLPASTHREIEMAQKLLNSDLAELINKMKLAQQYVMTSLQQEYKKQMLTAAHALAVDAKNLLDVIDQARLKMISQSRPH

Variants of: B1
Details: with src_chick SRC

effect of a mutation on the interaction	Variant
disrupting interaction	Y397F

Variants of: B1
Details: with Src

effect of a mutation on the interaction	Variant
decreasing interaction	Y397F
